Patent US20230062800A1 (DENALI THERAPEUTICS, published 2023)

Molecular target: T1, human apical domain TfR (human, UniProt P02786 198-378)
T1 construct: The SPR analyte is printed only as "human apical domain TfR"; also called human TfR; human transferrin receptor 1 apical domain
Assay: Biacore SPR as in Example 2; steady-state fit
Protocol: To determine whether SGSH-Fc fusion proteins with engineered TfR binding affects the ability of the modified Fc domain to interact with human TfR, the affinity of ETV: SGSH Bizyme Structure 1 (Example 1) for human TfR was assessed using a Biacore™ surface plasmon resonance assay. Biacore™ Series S CM5 sensor chips were immobilized with anti-human Fab (human Fab capture kit from GE Healthcare). 5 μg/mL of the SGSH-Fc fusion proteins were captured for 1 minute on each flow cell and serial 3-fold dilutions of human apical domain TfR were injected at a flow rate of 30 μL/min. Each sample was analyzed with a 3-minute association and a 3-minute dissociation. After each injection, the chip was regenerated using 10 mM glycine-HCl (pH 2.1). Binding response was corrected by subtracting the RU from a flow cell capturing an irrelevant IgG at similar density. Steady-state affinities were obtained by fitting the response at equilibrium against the concentration using Biacore™ T200 Evaluation Software v3.1. Biacore™ analysis established that SGSH-Fc fusion proteins with a TfR-binding site engineered into the Fc region bind to human TfR.

T1 sequence (P02786 198-378 limits assumed): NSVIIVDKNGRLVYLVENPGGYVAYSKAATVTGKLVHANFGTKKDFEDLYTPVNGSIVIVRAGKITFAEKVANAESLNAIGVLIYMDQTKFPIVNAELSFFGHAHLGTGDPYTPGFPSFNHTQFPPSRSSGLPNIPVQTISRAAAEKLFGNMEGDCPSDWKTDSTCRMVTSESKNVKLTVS

B1: ETV:SGSH Bizyme Structure 4 (Fc fusion)
chain 1: RPRNALLLLADDGGFESGAYNNSAIATPHLDALARRSLLFRNAFTSVSSCSPSRASLLTGLPQHQNGMYGLHQDVHHFNSFDKVRSLPLLLSQAGVRTGIIGKKHVGPETVYPFDFAYTEENGSVLQVGRNITRIKLLVRKFLQTQDDRPFFLYVAFHDPHRCGHSQPQYGTFCEKFGNGESGMGRIPDWTPQAYDPLDVLVPYFVPNTPAARADLAAQYTTVGRMDQGVGLVLQELRDAGVLNDTLVIFTSDNGIPFPSGRTNLYWPGTAEPLLVSSPEHPKRWGQVSEAYVSLLDLTPTILDWFSIPYPSYAIFGSKTIHLTGRSLLPALEAEPLWATVFGSQSHHEVTMSYPMRSVQHRHFRLVHNLNFKMPFPIDQDFYVSPTFQDLLNRTTAGQPTGWYKDLRHYYYRARWELYDRSRDPHETQNLATDPRFAQLLEMLRDQLAKWQWETHDPWVCAPDGVLEEKLSPQCQPLHNELGGGGSDKTHTCPPCPAPEAAGGPSVFLFPPKPKDTLMISRTPEVTCVVVDVSHEDPEVKFNWYVDGVEVHNAKTKPREEQYNSTYRVVSVLTVLHQDWLNGKEYKCKVSNKALSAPIEKTISKAKGQPREPQVYTLPPSRDELTKNQVSLSCAVKGFYPSDIAVEWESNGQPENNYKTTPPVLDSDGSFFLVSKLTVDKSRWQQGNVFSCSVMHEALHNHYTQKSLSLSPGK
chain 2: RPRNALLLLADDGGFESGAYNNSAIATPHLDALARRSLLFRNAFTSVSSCSPSRASLLTGLPQHQNGMYGLHQDVHHFNSFDKVRSLPLLLSQAGVRTGIIGKKHVGPETVYPFDFAYTEENGSVLQVGRNITRIKLLVRKFLQTQDDRPFFLYVAFHDPHRCGHSQPQYGTFCEKFGNGESGMGRIPDWTPQAYDPLDVLVPYFVPNTPAARADLAAQYTTVGRMDQGVGLVLQELRDAGVLNDTLVIFTSDNGIPFPSGRTNLYWPGTAEPLLVSSPEHPKRWGQVSEAYVSLLDLTPTILDWFSIPYPSYAIFGSKTIHLTGRSLLPALEAEPLWATVFGSQSHHEVTMSYPMRSVQHRHFRLVHNLNFKMPFPIDQDFYVSPTFQDLLNRTTAGQPTGWYKDLRHYYYRARWELYDRSRDPHETQNLATDPRFAQLLEMLRDQLAKWQWETHDPWVCAPDGVLEEKLSPQCQPLHNELGGGGSDKTHTCPPCPAPEAAGGPSVFLFPPKPKDTLMISRTPEVTCVVVDVSHEDPEVKFNWYVDGVEVHNAKTKPREEQYNSTYRVVSVLTVLHQDWLNGKEYKCKVSNKALSAPIEKTISKAKGQPREPQVYTLPPSRDELTKNQVSLWCLVKGFYPSDIAVEWESYGTEWANYKTTPPVLDSDGSFFLYSKLTVTKEEWQQGFVFSCSVMHEALHNHYTQKSLSLSPGK
modifications: SGSH cysteine at position 70 (full-length SGSH numbering) largely converted to formylglycine (fGly 99% in Table 2); the fGly form is SEQ ID NO:95; SGSH cysteine at position 70 (full-length SGSH numbering) largely converted to formylglycine (fGly 99% in Table 2); the fGly form is SEQ ID NO:67
notes: Heterodimer; The preparation may be a mixture; also called fourth "N-terminal bizyme" SGSH-Fc fusion protein; P329S variant of Bizyme Structure 1
  Kd: 340 nM
